B1: Rho-related GTP-binding protein RhoE (Homo sapiens), P61587 (parent)
chain: MKERRASQKLSSKSIMDPNQNVKCKIVVVGDSQCGKTALLHVFAKDCFPENYVPTVFENYTASFEIDTQRIELSLWDTSGSPYYDNVRPLSYPDSDAVLICFDISRPETLDSVLKKWKGEIQEFCPNTKMLLVGCKSDLRTDVSTLVELSNHRQTPVSYDQGANMAKQIGAATYIECSALQSENSVRDIFHVATLACVNKTNKNVKRNKSQRATKRISHMPSRPELSAVATDLRKDKAKSCTVM

Tests used:
[1] = variants of: B1; conditions: with plxb1_human PLXNB1, O43157
[2] = variants of: B1; conditions: with plxb2_human PLXNB2, O15031
Chain of plxb2_human PLXNB2, O15031 (O15031 whole entry): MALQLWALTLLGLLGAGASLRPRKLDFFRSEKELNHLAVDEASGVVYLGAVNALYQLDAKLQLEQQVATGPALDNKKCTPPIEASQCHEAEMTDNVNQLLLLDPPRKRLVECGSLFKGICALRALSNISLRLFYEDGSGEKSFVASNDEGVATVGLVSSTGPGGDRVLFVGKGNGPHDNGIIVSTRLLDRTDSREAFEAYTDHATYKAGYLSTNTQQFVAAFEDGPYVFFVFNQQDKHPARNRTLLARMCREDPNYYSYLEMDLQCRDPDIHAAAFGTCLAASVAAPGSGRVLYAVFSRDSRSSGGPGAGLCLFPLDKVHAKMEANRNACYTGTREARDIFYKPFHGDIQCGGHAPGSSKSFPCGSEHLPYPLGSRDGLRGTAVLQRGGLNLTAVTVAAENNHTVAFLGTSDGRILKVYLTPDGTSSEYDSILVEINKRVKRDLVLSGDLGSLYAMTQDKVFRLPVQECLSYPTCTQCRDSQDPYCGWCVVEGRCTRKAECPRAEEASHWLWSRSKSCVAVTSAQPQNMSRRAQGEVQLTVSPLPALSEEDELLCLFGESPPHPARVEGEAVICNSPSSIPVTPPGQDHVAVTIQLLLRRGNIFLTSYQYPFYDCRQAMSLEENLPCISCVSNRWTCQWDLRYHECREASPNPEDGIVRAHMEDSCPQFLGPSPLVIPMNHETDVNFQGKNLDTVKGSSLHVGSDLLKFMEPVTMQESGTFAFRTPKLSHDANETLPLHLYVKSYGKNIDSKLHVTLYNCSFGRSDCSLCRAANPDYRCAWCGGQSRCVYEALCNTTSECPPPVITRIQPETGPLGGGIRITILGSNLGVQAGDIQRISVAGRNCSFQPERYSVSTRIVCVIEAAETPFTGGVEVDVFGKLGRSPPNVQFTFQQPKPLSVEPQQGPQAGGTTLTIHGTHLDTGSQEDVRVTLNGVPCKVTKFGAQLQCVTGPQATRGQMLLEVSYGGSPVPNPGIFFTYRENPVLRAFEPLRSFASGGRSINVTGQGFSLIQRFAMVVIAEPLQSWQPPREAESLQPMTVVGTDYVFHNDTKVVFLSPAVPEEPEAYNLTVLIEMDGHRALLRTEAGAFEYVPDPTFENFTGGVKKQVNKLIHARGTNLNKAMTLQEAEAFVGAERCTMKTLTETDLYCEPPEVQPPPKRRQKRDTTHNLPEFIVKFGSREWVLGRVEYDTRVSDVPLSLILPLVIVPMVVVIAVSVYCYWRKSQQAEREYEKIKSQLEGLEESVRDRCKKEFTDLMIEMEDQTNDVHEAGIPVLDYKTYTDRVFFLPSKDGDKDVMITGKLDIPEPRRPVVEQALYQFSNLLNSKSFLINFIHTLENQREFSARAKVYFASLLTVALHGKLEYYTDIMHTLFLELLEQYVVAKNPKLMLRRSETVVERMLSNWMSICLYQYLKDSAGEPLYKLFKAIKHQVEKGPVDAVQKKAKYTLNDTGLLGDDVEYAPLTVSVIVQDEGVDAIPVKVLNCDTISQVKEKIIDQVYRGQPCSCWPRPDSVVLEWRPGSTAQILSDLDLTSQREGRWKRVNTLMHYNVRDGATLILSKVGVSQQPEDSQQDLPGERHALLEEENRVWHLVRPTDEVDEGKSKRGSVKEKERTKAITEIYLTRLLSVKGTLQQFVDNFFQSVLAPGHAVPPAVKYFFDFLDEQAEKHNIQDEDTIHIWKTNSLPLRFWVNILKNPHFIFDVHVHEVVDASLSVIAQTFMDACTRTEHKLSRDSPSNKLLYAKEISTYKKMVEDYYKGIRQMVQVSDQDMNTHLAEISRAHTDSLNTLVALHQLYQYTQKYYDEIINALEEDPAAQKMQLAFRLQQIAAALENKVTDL

Chain of plxb1_human PLXNB1, O43157 (O43157 whole entry): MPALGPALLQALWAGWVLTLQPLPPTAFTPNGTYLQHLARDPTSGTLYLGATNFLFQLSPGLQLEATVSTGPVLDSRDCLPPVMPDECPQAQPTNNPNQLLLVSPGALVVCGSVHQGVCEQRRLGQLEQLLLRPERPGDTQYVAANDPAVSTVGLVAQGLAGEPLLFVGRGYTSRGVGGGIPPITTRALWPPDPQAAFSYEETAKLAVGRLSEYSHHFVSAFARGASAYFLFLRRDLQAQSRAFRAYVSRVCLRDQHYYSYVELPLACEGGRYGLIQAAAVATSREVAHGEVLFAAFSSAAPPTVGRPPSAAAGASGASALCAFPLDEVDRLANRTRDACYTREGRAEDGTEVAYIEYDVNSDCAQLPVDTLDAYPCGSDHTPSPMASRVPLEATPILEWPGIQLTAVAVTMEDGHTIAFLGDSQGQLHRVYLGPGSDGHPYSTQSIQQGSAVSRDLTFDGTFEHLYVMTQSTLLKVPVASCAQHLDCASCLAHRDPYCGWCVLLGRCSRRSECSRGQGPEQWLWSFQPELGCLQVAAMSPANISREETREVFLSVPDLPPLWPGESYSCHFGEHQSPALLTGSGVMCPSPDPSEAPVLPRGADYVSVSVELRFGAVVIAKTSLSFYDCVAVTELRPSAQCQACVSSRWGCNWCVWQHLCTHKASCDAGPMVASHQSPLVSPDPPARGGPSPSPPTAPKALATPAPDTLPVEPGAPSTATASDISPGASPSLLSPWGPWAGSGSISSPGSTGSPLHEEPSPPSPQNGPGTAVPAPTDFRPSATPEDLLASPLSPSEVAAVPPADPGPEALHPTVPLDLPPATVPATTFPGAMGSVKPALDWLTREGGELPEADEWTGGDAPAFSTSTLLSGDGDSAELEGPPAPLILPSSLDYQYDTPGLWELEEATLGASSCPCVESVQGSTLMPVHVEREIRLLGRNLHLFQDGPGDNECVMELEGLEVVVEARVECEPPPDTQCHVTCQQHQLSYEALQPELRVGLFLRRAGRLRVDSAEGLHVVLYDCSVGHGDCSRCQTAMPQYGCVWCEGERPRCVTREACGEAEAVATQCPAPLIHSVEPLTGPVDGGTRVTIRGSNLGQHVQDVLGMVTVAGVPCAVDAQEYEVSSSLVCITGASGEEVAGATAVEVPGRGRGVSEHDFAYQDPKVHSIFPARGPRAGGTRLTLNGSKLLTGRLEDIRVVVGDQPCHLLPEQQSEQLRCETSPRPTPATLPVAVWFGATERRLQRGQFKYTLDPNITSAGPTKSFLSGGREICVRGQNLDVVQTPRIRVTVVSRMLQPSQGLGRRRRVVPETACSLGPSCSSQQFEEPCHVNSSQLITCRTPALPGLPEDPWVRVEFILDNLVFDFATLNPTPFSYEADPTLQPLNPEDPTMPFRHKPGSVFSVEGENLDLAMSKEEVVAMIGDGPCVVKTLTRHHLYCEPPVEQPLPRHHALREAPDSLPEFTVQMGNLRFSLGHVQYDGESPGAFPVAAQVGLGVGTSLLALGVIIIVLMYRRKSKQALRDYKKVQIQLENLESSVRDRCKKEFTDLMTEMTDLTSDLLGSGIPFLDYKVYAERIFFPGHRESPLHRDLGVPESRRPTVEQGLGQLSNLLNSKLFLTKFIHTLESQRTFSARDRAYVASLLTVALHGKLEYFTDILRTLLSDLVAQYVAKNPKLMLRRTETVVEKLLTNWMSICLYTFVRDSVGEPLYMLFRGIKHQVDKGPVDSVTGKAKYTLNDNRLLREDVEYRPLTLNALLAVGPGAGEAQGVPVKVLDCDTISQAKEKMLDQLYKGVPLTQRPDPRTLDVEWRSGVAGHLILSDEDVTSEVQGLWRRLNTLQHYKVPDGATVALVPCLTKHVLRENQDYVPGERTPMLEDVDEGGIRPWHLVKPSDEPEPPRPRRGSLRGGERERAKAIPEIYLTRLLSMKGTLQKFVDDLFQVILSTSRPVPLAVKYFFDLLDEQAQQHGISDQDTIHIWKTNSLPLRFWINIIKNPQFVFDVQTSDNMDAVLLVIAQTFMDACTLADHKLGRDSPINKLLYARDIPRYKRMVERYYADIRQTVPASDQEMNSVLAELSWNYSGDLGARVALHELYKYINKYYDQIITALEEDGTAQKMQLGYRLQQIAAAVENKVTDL

Variant	effect of a mutation on the interaction [1]	effect of a mutation on the interaction [2]
F124Y	with no effect	with no effect
L90R	disrupting interaction strength	disrupting interaction strength
N86R	with no effect	with no effect
Y60A	with no effect	with no effect
V87R	disrupting interaction strength	disrupting interaction strength

Source: IntAct's records for PubMed 29040270
